From article PMC4716839

Tests used:
[1] = target: Rpa heterotrimer (Rpa70/Rpa32/Rpa14) (Mus musculus) (UniProt Q8VEE4+Q62193+Q9CQ71); test: bead pull-down; settings: Dna2 D278A added after Rpa loading; EMSA: 20 mM Tris-HCl pH 8.0, 80 mM NaCl, 0.3 mM TCEP, 0.2 mg/mL BSA, 2% glycerol, on ice 30 min, 0.075 or 0.3 nM 32P-DNA; 4% native PAGE, 1x TB, 4 C
[2] = target: mouse Rpa heterotrimer (Rpa70, Rpa32, Rpa14) (mouse) (UniProt Q8VEE4)
Chain of mouse Rpa heterotrimer (Rpa70, Rpa32, Rpa14) (mouse) (Q8VEE4 whole entry, chain 1 of 3): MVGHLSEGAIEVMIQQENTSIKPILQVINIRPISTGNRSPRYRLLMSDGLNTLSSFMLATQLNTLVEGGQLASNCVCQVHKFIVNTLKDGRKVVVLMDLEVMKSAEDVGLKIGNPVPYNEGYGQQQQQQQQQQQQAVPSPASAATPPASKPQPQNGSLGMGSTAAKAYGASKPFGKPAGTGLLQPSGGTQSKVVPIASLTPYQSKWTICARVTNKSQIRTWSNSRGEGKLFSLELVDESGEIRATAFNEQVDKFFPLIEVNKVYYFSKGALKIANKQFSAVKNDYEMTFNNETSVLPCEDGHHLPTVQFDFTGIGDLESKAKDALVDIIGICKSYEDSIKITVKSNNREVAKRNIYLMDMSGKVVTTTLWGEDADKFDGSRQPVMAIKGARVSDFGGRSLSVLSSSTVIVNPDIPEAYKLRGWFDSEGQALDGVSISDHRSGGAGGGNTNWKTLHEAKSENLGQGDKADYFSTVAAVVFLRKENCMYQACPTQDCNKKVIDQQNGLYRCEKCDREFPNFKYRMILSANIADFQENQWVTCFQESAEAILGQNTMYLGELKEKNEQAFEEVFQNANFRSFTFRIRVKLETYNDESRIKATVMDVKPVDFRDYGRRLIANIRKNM
Chain of mouse Rpa heterotrimer (Rpa70, Rpa32, Rpa14) (mouse) (Q62193 whole entry, chain 2 of 3, further chain): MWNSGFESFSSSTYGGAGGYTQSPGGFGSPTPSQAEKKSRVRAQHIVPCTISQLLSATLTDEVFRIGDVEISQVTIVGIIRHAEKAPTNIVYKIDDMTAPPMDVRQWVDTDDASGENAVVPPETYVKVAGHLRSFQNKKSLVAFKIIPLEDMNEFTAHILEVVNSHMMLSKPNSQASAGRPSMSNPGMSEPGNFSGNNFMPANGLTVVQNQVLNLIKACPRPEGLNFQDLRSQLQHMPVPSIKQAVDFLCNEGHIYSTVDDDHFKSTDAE
Chain of mouse Rpa heterotrimer (Rpa70, Rpa32, Rpa14) (mouse) (Q9CQ71 whole entry, chain 3 of 3, further chain): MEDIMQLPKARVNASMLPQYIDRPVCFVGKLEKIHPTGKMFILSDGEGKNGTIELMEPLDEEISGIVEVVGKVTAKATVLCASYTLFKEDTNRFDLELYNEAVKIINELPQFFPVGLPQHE

Chain of Rpa heterotrimer (Rpa70/Rpa32/Rpa14) (Mus musculus) (Q8VEE4 whole entry, chain 1 of 3): as the sequence (Q8VEE4 whole entry, chain 1 of 3) above
Chain of Rpa heterotrimer (Rpa70/Rpa32/Rpa14) (Mus musculus) (Q62193 whole entry, chain 2 of 3): as the sequence (Q62193 whole entry, chain 2 of 3, further chain) above
Chain of Rpa heterotrimer (Rpa70/Rpa32/Rpa14) (Mus musculus) (Q9CQ71 whole entry, chain 3 of 3): as the sequence (Q9CQ71 whole entry, chain 3 of 3, further chain) above
Chain of α1-deleted mouse Dna2 (Q6ZQJ5 1-1056, stated change not applied): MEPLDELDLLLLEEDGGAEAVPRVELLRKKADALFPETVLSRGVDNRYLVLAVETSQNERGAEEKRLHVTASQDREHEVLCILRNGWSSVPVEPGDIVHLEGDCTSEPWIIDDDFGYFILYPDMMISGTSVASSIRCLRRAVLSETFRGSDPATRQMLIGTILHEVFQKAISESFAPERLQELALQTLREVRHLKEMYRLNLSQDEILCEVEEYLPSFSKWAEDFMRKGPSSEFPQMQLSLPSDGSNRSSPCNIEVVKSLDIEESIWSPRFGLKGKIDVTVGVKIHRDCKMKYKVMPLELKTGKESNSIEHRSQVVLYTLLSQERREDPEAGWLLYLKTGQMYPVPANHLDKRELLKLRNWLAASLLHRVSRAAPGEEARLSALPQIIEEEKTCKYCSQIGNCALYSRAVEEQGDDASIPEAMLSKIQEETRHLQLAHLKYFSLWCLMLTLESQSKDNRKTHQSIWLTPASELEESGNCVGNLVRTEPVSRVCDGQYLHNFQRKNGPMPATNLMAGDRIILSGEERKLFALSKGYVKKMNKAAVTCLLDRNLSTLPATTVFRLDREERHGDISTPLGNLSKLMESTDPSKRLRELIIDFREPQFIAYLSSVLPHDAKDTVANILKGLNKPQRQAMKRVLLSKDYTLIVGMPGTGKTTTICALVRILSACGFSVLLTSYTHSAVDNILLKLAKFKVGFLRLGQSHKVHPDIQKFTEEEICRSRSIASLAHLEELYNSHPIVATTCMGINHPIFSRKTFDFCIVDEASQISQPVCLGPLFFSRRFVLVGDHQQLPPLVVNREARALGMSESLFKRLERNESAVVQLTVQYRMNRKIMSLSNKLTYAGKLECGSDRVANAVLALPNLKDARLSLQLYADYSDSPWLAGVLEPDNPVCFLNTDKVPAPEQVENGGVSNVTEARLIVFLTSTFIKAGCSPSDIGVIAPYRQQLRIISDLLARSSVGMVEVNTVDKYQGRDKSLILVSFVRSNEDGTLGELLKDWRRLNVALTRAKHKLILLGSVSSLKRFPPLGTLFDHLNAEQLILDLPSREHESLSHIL

nuclease activity: cleavage of the Rpa-coated 5’ stem-loop overhang substrate 5’SL24 (15 nM, 15 nM Rpa), fold reduction compared to intact Dna2 [2] [fold] | Substance | binding signal (% reduction of bound Rpa by Dna2 D278A) [1]
– | 5'-(dT)26 overhang DNA, biotinylated | 30
– | 3'-(dT)26 overhang DNA, biotinylated | 5
2 | α1-deleted mouse Dna2 (from UniProt Q6ZQJ5 1-1056) (enzyme) | –
